± gives the standard deviation of the averaged measurements.
Test: total protein half-life in vivo (active degradation + dilution); higher = more stable protein
[1] = E. coli NCM3722 delta-clpP delta-lon delta-hslV, growth: N-lim chemostat, doubling time 6 h
[2] = E. coli NCM3722 delta-clpP, growth: N-lim chemostat, doubling time 6 h
[3] = E. coli NCM3722 delta-hslV, growth: N-lim chemostat, doubling time 6 h
[4] = E. coli NCM3722 delta-lon, growth: N-lim chemostat, doubling time 6 h
[5] = E. coli NCM3722 delta-smpB, growth: N-lim chemostat, doubling time 6 h
[6] = wild type E. coli NCM3722, growth: C-lim chemostat, doubling time 3 h
[7] = wild type E. coli NCM3722, growth: C-lim chemostat, doubling time 6 h
[8] = wild type E. coli NCM3722, growth: C-lim chemostat, doubling time 12 h
[9] = wild type E. coli NCM3722, growth: N-lim chemostat, doubling time 6 h
[10] = wild type E. coli NCM3722, growth: N-lim chemostat, doubling time 12 h
[11] = wild type E. coli NCM3722, growth: P-lim chemostat, doubling time 6 h
[12] = wild type E. coli NCM3722, growth: P-lim chemostat, doubling time 12 h

Row | Sequence | total protein half-life in vivo [1] | total protein half-life in vivo [2] | total protein half-life in vivo [3] | total protein half-life in vivo [4] | total protein half-life in vivo [5] | total protein half-life in vivo [6] | total protein half-life in vivo [7] | total protein half-life in vivo [8] | total protein half-life in vivo [9] | total protein half-life in vivo [10] | total protein half-life in vivo [11] | total protein half-life in vivo [12]
1 | MTRKQATIAVRSGLNDDEQYGCVVPPIHLSSTYNFTGFNEPRAHDYSRRGNPTRDVVQRALAELEGGAGAVLTNTGMSAIHLVTTVFLKPGDLLVAPHDCYGGSYRLFDSLAKRGCYRVLFVDQGDEQALRAALAEKPKLVLVESPSNPLLRVVDIAKICHLAREVGAVSVVDNTFLSPALQNPLALGADLVLHSCTKYLNGHSDVVAGVVIAKDPDVVTELAWWANNIGVTGGAFDSYLLLRGLRTLVPRMELAQRNAQAIVKYLQTQPLVKKLYHPSLPENQGHEIAARQQKGFGAMLSFELDGDEQTLRRFLGGLSLFTLAESLGGVESLISHAATMTHAGMAPEARAAAGISETLLRISTGIEDGEDLIADLENGFRAANKG | 4.37 ± 0.79 h | 4.07 ± 0.43 h | 3.31 ± 0.36 h | 4.53 ± 0.59 h | 3.95 ± 0.28 h | 3.1 ± 0.16 h | 4.98 ± 0.61 h | 10 ± 0.44 h | 3.56 ± 0.17 h | 5.84 ± 0.7 h | 5.83 ± 0.5 h | 11.7 ± 1.1 h
2 | MACGEFSLIARYFDRVRSSRLDVELGIGDDCALLNIPEKQTLAISTDTLVAGNHFLPDIDPADLAYKALAVNLSDLAAMGADPAWLTLALTLPDVDEAWLESFSDSLFDLLNYYDMQLIGGDTTRGPLSMTLGIHGFVPMGRALTRSGAKPGDWIYVTGTPGDSAAGLAILQNRLQVADAKDADYLIKRHLRPSPRILQGQALRDLANSAIDLSDGLISDLGHIVKASDCGARIDLALLPFSDALSRHVEPEQALRWALSGGEDYELCFTVPELNRGALDVALGHLGVPFTCIGQMTADIEGLCFIRDGEPVTLDWKGYDHFATP [P0AGG0] | 5.68 ± 0.31 h | 4.97 ± 0.5 h | 5.14 ± 1.4 h |  | 3.99 ± 0.23 h |  | 5.41 ± 0.077 h | 10.2 ± 1 h | 4.17 ± 0.23 h | 7.02 ± 0.95 h | 5.41 ± 0.33 h | 12.1 ± 0.31 h
3 | MTWEYALIGLVVGIIIGAVAMRFGNRKLRQQQALQYELEKNKAELDEYREELVSHFARSAELLDTMAHDYRQLYQHMAKSSSSLLPELSAEANPFRNRLAESEASNDQAPVQMPRDYSEGASGLLRTGAKRD [P0ADW3] | 6.13 ± 0.15 h | 5.58 ± 0.45 h | 5.63 ± 0.57 h | 5.76 ± 0.067 h | 5.84 ± 0.37 h | 3.33 ± 0.31 h | 6.4 ± 0.23 h | 12.4 ± 2.7 h | 5.78 ± 0.092 h | 11.7 ± 0.66 h | 5.43 ± 0.44 h | 12.5 ± 1.1 h
4 | MKIKAVGAYSAKQPLEPMDITRREPGPNDVKIEIAYCGVCHSDLHQVRSEWAGTVYPCVPGHEIVGRVVAVGDQVEKYAPGDLVGVGCIVDSCKHCEECEDGLENYCDHMTGTYNSPTPDEPGHTLGGYSQQIVVHERYVLRIRHPQEQLAAVAPLLCAGITTYSPLRHWQAGPGKKVGVVGIGGLGHMGIKLAHAMGAHVVAFTTSEAKREAAKALGADEVVNSRNADEMAAHLKSFDFILNTVAAPHNLDDFTTLLKRDGTMTLVGAPATPHKSPEVFNLIMKRRAIAGSMIGGIPETQEMLDFCAEHGIVADIEMIRADQINEAYERMLRGDVKYRFVIDNRTLTD | 4.84 ± 0.2 h | 4.8 ± 0.18 h | 4.92 ± 0.16 h | 5.05 ± 0.38 h | 4.66 ± 0.61 h | 3.225 ± 0.021 h | 5.86 ± 0.58 h | 11 ± 0.91 h | 5.04 ± 0.17 h | 8.89 ± 0.21 h | 6.23 ± 0.59 h | 12 ± 0.78 h
5 | MPANARSHAVLTTESKVTIRGQTTIPAPVREALKLKPGQDSIHYEILPGGQVFMCRLGDEQEDHTMNAFLRFLDADIQNNPQKTRPFNIQQGKKLVAGMDVNIDDEIGDDE | 5.19 ± 0.069 h | 2.83 ± 0.037 h | 3.29 ± 0.22 h | 2.97 ± 0.61 h | 2.88 ± 0.047 h | > 4 h | 3.52 ± 0.75 h | 5.13 ± 1.2 h | 3.11 ± 0.63 h | 5.02 ± 0.3 h | 2.77 ± 0.39 h | 5.24 ± 0.056 h
6 | MGSTSSLYAAIDLGSNSFHMLVVREVAGSIQTLTRIKRKVRLAAGLNSENALSNEAMERGWQCLRLFAERLQDIPPSQIRVVATATLRLAVNAGDFIAKAQEILGCPVQVISGEEEARLIYQGVAHTTGGADQRLVVDIGGASTELVTGTGAQTTSLFSLSMGCVTWLERYFADRNLGQENFDAAEKAAREVLRPVADELRYHGWKVCVGASGTVQALQEIMMAQGMDERITLEKLQQLKQRAIHCGRLEELEIDGLTLERALVFPSGLAILIAIFTELNIQCMTLAGGALREGLVYGMLHLAVEQDIRSRTLRNIQRRFMIDIDQAQRVAKVAANFFDQVENEWHLEAISRDLLISACQLHEIGLSVDFKQAPQHAAYLVRNLDLPGFTPAQKKLLATLLLNQTNPVDLSSLHQQNAVPPRVAEQLCRLLRLAIIFASRRRDDLVPEMTLQANHELLTLTLPQGWLTQHPLGKEIIAQESQWQSYVHWPLEVH | 4.11 ± 0.81 h | 3.91 ± 0.1 h | 3.77 ± 0.53 h | 3.75 ± 0.87 h | 3.64 ± 0.35 h | 2.92 ± 0.24 h | 5.11 ± 0.2 h | 9.31 ± 0.75 h | 3.94 ± 0.33 h | 5.6 ± 0.23 h | 5.28 ± 1 h | 11.3 ± 0.41 h
7 | MSHRRSTVKGSLSFANPTVRAWLFQILAVVAVVGIVGWLFHNTVTNLNNRGITSGFAFLDRGAGFGIVQHLIDYQQGDTYGRVFIVGLLNTLLVSALCIVFASVLGFFIGLARLSDNWLLRKLSTIYIEIFRNIPPLLQIFFWYFAVLRNLPGPRQAVSAFDLAFLSNRGLYIPSPQLGDGFIAFILAVVMAIVLSVGLFRFNKTYQIKTGQLRRTWPIAAVLIIGLPLLAQWLFGAALHWDVPALRGFNFRGGMVLIPELAALTLALSVYTSAFIAEIIRAGIQAVPYGQHEAARSLGLPNPVTLRQVIIPQALRVIIPPLTSQYLNIVKNSSLAAAIGYPDMVSLFAGTVLNQTGQAIETIAMTMSVYLIISLTISLLMNIYNRRIAIVER |  |  | 3.79 h |  |  |  |  |  | 4.44 ± 0.14 h | 6.58 h |  | 
8 | MIIRDENYFTDKYELTRTHSEVLEAVKVVKPGKTLDLGCGNGRNSLYLAANGYDVDAWDKNAMSIANVERIKSIENLDNLHTRVVDLNNLTFDRQYDFILSTVVLMFLEAKTIPGLIANMQRCTKPGGYNLIVAAMDTADYPCTVGFPFAFKEGELRRYYEGWERVKYNEDVGELHRTDANGNRIKLRFATMLARKK | 5.25 ± 0.98 h | 4.08 ± 0.48 h | 4.13 ± 0.29 h | 5.98 ± 0.65 h | 3.94 ± 0.12 h | 2.93 ± 0.1 h | 5.19 ± 0.19 h | 8.23 ± 1.5 h | 4.09 ± 0.12 h | 6.9 ± 0.16 h | 6.01 ± 0.67 h | 11 ± 0.36 h

Source: the supplement of paper PMC11246515
